# From PMC3226628, “The Golgi Localization of GOLPH2 (GP73/GOLM1) Is Determined by the Transmembrane and Cytoplamic Sequences” (PLoS ONE, 2011)
# Changes are numbered by the printed parent chain. Numbers in names are those of the source.
# B1: GOLPH2-Δ(1–55) (domain or fragment, human, UniProt Q8NBJ4 56-401, looked up)
# chain: AAAERGAVELKKNEFQGELEKQREQLDKIQSSHNFQLESVNKLYQDEKAVLVNNITTGERLIRVLQDQLKTLQRNYGRLQQDVLQFQKNQTNLERKFSYDLSQCINQMKEVKEQCEERIEEVTKKGNEAVASRDLSENNDQRQQLQALSEPQPRLQAAGLPHTEVPQGKGNVLGNSKSQTPAPSSEVVLDSKRQVEKEETNEIQVVNEEPQRDRLPQEPGREQVVEDRPVGGRGFGGAGELGQTPQVQAALSVSQENPEMEGPERDQLVIPDGQEEEQEAAGEGRNQQKLRGEDDYNMDENEAESETDKQAALAGNDRNIDVFNVEDQKRDTINLLDQREKRNHTL
# notes: Golgi phosphoprotein 2 (GOLPH2, GP73, GOLM1), human, residues 1-55 deleted; C-terminal luminal region, amino acids 56-401; also called purified wild-type GOLPH2; GOLPH2-Δ(1–55) fusion protein; source: E. coli BL21 (DE3), pET22b(+), purified (Ni-NTA)
# B2: GOLPH2-Δ(1–55) C159A (domain or fragment, human, UniProt Q8NBJ4 56-401, looked up)
# chain: B1 chain with C104A
# notes: GOLPH2 (GP73, GOLM1), human, residues 1-55 deleted (amino acids 56-401), C159A; also called single mutant C159A; source: E. coli BL21 (DE3), pET22b(+), purified (Ni-NTA)
# B3: GOLPH2-Δ(1–55) C159A-C170A (domain or fragment, human, UniProt Q8NBJ4 56-401, looked up)
# chain: B1 chain with C104A, C115A
# notes: GOLPH2 (GP73, GOLM1), human, residues 1-55 deleted (amino acids 56-401), C159A and C170A; Monomer on non-reducing SDS-PAGE, same migration as the wild type on native-PAGE; also called double mutant C159A–C170A; source: E. coli BL21 (DE3), pET22b(+), purified (Ni-NTA)
# B4: GOLPH2-Δ(1–55) C170A (domain or fragment, human, UniProt Q8NBJ4 56-401, looked up)
# chain: B1 chain with C115A
# notes: GOLPH2 (GP73, GOLM1), human, residues 1-55 deleted (amino acids 56-401), C170A; also called single mutant C170A; source: E. coli BL21 (DE3), pET22b(+), purified (Ni-NTA)
# B5: GOLPH2-FLAG (wild-type, full length) (natural protein, human, UniProt Q8NBJ4 1-401, looked up)
# chain: MMGLGNGRRSMKSPPLVLAALVACIIVLGFNYWIASSRSVDLQTRIMELEGRVRRAAAERGAVELKKNEFQGELEKQREQLDKIQSSHNFQLESVNKLYQDEKAVLVNNITTGERLIRVLQDQLKTLQRNYGRLQQDVLQFQKNQTNLERKFSYDLSQCINQMKEVKEQCEERIEEVTKKGNEAVASRDLSENNDQRQQLQALSEPQPRLQAAGLPHTEVPQGKGNVLGNSKSQTPAPSSEVVLDSKRQVEKEETNEIQVVNEEPQRDRLPQEPGREQVVEDRPVGGRGFGGAGELGQTPQVQAALSVSQENPEMEGPERDQLVIPDGQEEEQEAAGEGRNQQKLRGEDDYNMDENEAESETDKQAALAGNDRNIDVFNVEDQKRDTINLLDQREKRNHTL
# notes: Golgi phosphoprotein 2 (GOLPH2, GP73, GOLM1), human, full-length cDNA from Huh7 cells; also called pCR3.1-GOLPH2-FLAG; wild-type GOLPH2; source: HeLa, transfected, in lysate; not shown: FLAG, C-terminal, kept
# Columns and labels:
# [1] = molecular target: the molecule itself; assay: SDS-PAGE under non-reducing and reducing conditions; purified GOLPH2-Δ(1–55) and cysteine mutants boiled with 0 to 100 mM 2-mercaptoethanol, 10% SDS-PAGE; shows disulfide-linked oligomers
# [2] = molecular target: the molecule itself; assay: native gel or EMSA; native-PAGE of purified GOLPH2-Δ(1–55) and cysteine mutants, loaded directly or boiled with 2% SDS and 140 mM 2-mercaptoethanol; BSA monomer, dimer and tetramer as markers
# [3] = molecular target: the molecule itself; assay: SDS-PAGE under non-reducing conditions with immunoblot; lysates of HeLa cells 36 h after transfection with pCR3.1-GOLPH2-FLAG or mutants; immunoblot with FLAG antibody
Protein,binding result [1],binding result [2],further results
B1,binds,–,–
B2,–,binds,–
B3,–,binds,–
B4,binds,–,–
B5,–,–,stoichiometry N [3]: 2
